pKd: −log10 of the molar value.
Legend:
[1] = biological target: hAgo2 (single-molecule) (Homo sapiens) (UniProt Q9UKV8); assay: single-molecule FRET; settings: 5'-phosphate on guide, C6-amino-U in guide (nt 9) and in target (opposite guide nt 17), Filter binding: 30 mM Tris pH 8.0, 0.1 M K acetate, 2 mM Mg acetate, 0.5 mM TCEP, 0.005% NP-40, 0.01 mg/ml yeast tRNA, room temp, 45 min, 0.1 nM target …
[2] = biological target: Ago2 wild type (Homo sapiens) (UniProt Q9UKV8); assay: filter binding; settings: 5'-phosphate on guide; target nt 9 (N) = inosine; Filter binding: 30 mM Tris pH 8.0, 0.1 M K acetate, 2 mM Mg acetate, 0.5 mM TCEP, 0.005% NP-40, 0.01 mg/ml yeast tRNA, room temp, 45 min, 0.1 nM target …
Chain of Ago2 wild type (Homo sapiens) (Q9UKV8 whole entry): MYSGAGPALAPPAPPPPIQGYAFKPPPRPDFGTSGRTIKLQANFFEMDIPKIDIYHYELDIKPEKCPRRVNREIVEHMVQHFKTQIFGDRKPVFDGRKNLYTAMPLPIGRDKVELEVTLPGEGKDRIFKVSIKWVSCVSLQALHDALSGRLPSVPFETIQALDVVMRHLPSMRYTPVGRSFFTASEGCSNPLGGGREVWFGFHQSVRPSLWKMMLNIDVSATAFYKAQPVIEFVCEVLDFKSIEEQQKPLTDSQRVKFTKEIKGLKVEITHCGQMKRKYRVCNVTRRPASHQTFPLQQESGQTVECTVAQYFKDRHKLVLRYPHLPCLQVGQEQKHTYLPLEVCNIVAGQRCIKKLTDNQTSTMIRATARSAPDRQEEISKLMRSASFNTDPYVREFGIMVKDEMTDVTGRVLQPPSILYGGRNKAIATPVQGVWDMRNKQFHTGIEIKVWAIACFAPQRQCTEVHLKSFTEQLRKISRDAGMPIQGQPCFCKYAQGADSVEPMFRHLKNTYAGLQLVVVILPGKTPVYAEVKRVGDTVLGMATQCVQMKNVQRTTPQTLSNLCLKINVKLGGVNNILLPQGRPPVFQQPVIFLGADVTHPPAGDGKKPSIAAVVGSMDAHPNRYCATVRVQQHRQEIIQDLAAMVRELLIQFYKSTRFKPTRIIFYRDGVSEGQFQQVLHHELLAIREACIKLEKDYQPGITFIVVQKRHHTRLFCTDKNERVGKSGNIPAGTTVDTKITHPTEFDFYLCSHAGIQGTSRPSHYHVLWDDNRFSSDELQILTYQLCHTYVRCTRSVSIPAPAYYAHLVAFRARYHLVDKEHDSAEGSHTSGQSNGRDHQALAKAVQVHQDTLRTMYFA

Chain of hAgo2 (single-molecule) (Homo sapiens) (Q9UKV8 whole entry): as above

UGAGGUAUUUUUUUUUUUUUUU / UUUUUUUUUUUUUUUUUUUUUUUUUUUUUUUACUACCUCUUUUUUUUUUUUUUUUUUUUUUUUUUUUUU [smFRET guide + t1U target]
binding signal ([1]; dwell time, single exponential): 1.64 s

UGAGGUAUUUUUUUUUUUUUUU / UUUUUUUUUUUUUUUUUUUUUUUUUUUUUUUACUACCUCAUUUUUUUUUUUUUUUUUUUUUUUUUUUUU [smFRET guide + t1DAP target]
binding signal ([1]; long dwell time (55.4%), short 1.97 ± 0.24 s (44.6%), target nt 40 = 2,6-diaminopurine (written A)): 12.9 s

UUCACAUUGCCCAAGUCUCUU / CAAUGUGANAA [guide + t1I target]
pKd [2]: 8.77

UGAGGUAUUUUUUUUUUUUUUU / UUUUUUUUUUUUUUUUUUUUUUUUUUUUUUUACUACCUCAUUUUUUUUUUUUUUUUUUUUUUUUUUUUU [smFRET guide + t1A target]
binding signal ([1]; long dwell time (50.2%), short 1.61 ± 0.29 s (49.8%)): 8.69 s

Source: PMC4606517
